Source: PMC4027207, “Molecular dissection of the domain architecture and catalytic activities of human PrimPol” (Nucleic Acids Research, 2014)

Assays:
[1] = molecular target: T1, human PrimPol (wild-type, full-length) (Homo sapiens, UniProt Q96LW4); assay: gel-based single nucleotide primer extension; format: biochemical; conditions: 200 uM dNTP
T1 construct: full length (560 residues), E. coli BL21(pLysS), Ni-NTA, heparin and gel filtration
T1 sequence (Q96LW4 1-560): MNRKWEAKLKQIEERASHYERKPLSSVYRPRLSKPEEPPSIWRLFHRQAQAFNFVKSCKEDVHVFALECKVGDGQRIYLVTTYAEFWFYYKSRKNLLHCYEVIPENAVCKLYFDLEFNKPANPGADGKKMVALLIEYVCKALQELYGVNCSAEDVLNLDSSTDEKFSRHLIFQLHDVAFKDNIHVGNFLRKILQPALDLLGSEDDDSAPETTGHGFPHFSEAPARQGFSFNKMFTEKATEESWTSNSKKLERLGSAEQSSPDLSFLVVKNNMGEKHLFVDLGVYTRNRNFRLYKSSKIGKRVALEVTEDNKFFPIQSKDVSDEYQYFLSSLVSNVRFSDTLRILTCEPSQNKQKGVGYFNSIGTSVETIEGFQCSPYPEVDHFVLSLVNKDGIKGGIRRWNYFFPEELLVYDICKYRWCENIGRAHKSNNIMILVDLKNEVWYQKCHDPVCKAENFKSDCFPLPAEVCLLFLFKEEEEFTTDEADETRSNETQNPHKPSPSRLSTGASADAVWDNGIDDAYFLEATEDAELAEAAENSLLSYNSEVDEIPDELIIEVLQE

PrimPol1–354 = molecular target: T2, PrimPol1–354 (Homo sapiens, UniProt Q96LW4); assay: gel-based single nucleotide primer extension; format: biochemical; conditions: opposite templating cytosines; 200 uM dNTP, 10 mM MgCl2, pH 7.0
T2 construct: gene PRIMPOL; AEP polymerase domain, residues 1-354, lacks zinc finger; E. coli, Ni-NTA
T2 sequence (Q96LW4 1-354): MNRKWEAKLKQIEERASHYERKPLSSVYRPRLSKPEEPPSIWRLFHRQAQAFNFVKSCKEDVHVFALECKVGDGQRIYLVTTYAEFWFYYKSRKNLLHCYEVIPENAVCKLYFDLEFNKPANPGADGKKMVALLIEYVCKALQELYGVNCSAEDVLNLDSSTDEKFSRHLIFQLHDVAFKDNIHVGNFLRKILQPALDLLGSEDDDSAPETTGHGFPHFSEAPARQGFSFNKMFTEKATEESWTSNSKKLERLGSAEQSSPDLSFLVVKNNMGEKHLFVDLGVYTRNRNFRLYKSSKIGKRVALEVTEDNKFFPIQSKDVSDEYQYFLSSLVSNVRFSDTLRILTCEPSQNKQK

[2] = molecular target: T3, PrimPol372-560 (zinc finger domain) (Homo sapiens, UniProt Q96LW4 372-560); assay: EMSA; 10 mM Mg2+; 40 nM DNA; protein 0.05-20 uM; 10 mM Bis-Tris-Propane-HCl pH 7.0, 10 mM MgCl2, 1 mM DTT, 40 nM DNA, 25°C, 60 min; 5% polyacrylamide gel in 0.5x TBE; conditions: protein: recombinant; tags: His (Ni-NTA purified); label: 5'-Hex
T3 sequence: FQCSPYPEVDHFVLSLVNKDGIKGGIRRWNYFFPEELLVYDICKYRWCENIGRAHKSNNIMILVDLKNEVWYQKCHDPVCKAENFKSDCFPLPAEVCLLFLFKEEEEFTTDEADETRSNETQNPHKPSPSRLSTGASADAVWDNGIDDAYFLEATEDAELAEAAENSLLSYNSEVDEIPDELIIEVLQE

[3] = molecular target: T4, PrimPol1-354 (AEP polymerase domain) (Homo sapiens, UniProt Q96LW4 1-354); assay: EMSA; 10 mM Mg2+; 40 nM DNA; shift evident at ~0.5 uM protein, complete at 5 uM; 10 mM Bis-Tris-Propane-HCl pH 7.0, 10 mM MgCl2, 1 mM DTT, 40 nM DNA, 25°C, 60 min; 5% polyacrylamide gel in 0.5x TBE; conditions: protein: recombinant, tags: His (Ni-NTA purified)
T4 sequence: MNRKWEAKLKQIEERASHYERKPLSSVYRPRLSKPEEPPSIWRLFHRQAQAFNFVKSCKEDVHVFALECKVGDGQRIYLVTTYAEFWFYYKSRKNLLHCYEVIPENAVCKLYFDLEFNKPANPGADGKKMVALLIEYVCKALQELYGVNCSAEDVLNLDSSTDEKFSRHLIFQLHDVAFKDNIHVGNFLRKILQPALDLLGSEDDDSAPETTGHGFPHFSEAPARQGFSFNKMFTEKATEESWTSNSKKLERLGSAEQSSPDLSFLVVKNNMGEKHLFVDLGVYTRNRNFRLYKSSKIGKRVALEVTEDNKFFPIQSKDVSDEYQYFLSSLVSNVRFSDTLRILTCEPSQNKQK

[4] = molecular target: T3, PrimPol372-560 (zinc finger domain); assay: EMSA; 10 mM Mg2+; 40 nM DNA; no shift, protein 0.05-20 uM; 10 mM Bis-Tris-Propane-HCl pH 7.0, 10 mM MgCl2, 1 mM DTT, 40 nM DNA, 25°C, 60 min; 5% polyacrylamide gel in 0.5x TBE; conditions: protein: recombinant; tags: His (Ni-NTA purified); label: 5'-Hex on strand 1; blunt

Nc1ncnc2c1ncn2[C@H]1C[C@H](O)[C@@H](COP(=O)(O)OP(=O)(O)OP(=O)(O)O)O1 [dATP]
gel-based single nucleotide primer extension ([1]; template-independent extension, 10 mM MgCl2, 1 mM MnCl2, pH 7.0, 37 °C): promiscuous DNA synthesis was most efficient when enzyme was utilising dATP or dTTP

Nc1nc2c(ncn2[C@H]2C[C@H](O)[C@@H](COP(=O)(O)OP(=O)(O)OP(=O)(O)O)O2)c(=O)[nH]1 [dGTP]
gel-based single nucleotide primer extension (PrimPol1–354): All four of these PrimPol constructs inserted two guanine nucleotides opposite two cytosines
gel-based single nucleotide primer extension ([1]; opposite templating cytosines, 10 mM MgCl2, pH 7.0): all incorporated two correct incoming guanine nucleotides opposite the templating cytosines

TGTCGTCTGTTCGGTCGTTCGGTCTTCAAGGCTGTTGTGCGCCCTGCGCG (ssDNA) [HP-50 ssDNA (sequence 7)]
binding result [2]: binds
binding result ([3]; label: 5'-Hex): binds

B1: HP-50/ND-50 dsDNA (sequence 6 annealed to 7) (dsDNA)
DNA 1: TGTCGTCTGTTCGGTCGTTCGGTCTTCAAGGCTGTTGTGCGCCCTGCGCG
DNA 2: CGCGCAGGGCGCACAACAGCCTTGAAGACCGAACGACCGAACAGACGACA
binding result [4]: no binding
binding result ([3]; label: 5'-Hex on strand 1, blunt): binds
